# System: CC(=O)OC[C@H](N)C(=O)O
# Test: purified protein
# Conditions: 30 mM Na2S, MOPS, 37 °C, no glycerol, cooperative
substance,measurement,value
NgCysK (Neisseria gonorrhoeae FA 1090),K0.5,1.541 ± 0.306 mM

# From publication doi:10.1101/2025.03.26.645513v1
